Data: article PMC12423313, “Protein-based tools for the detection and characterisation of Oropouche virus infection” (EMBO Molecular Medicine, 2025)

B1: biotinylated nanobody SpC6 (AviTag-His9) (VHH)
VHH: QVQLVESGGGSVQAGGSLRLSCAASGRTFSRYAMGWLRQAPGKEREFVAAITWSGGNTYYADSVKGRFTITRDDAKNTVYLQINNPKPEDTAVYYCAAGTQTGRIRDKGPSYWGQGTQVTVSS
notes: VHH SpC6 from an immunised llama; also called bSpC6; OROV Gc Spike Nb C6 BAP H9; not shown: AviTag, C-terminal, kept
B2: nanobody SpC6, His8-tagged (VHH)
VHH: B1 VHH
notes: as the VHH of m19; also called OROV Gc Spike Nb C6 H8; not shown: His8, C-terminal, kept
B3: OROV nucleoprotein (N), recombinant, strain BeAn19991 (natural protein, Oropouche virus strain BeAn19991)
chain: MSEFIFNDVPQRTTSTFDPEAAYVAFEARYGQVLNAGVVRVFFLNQKKAKDVLRKTSRPMVDLTFGGVQFAMVNNHFPQFQSNPVPDNGLTLHRLSGYLARWAFTQMRSPIKQAEFRATVVVPLAEVKGCTWNDGDAMYLGFAAGAEMFLQTFTFFPLVIEMHRVLKDGMDVNFMKKVLRQRYGQKTAEQWMREEIVAVRAAFEAVGTLAWARTGFSPAARDFLRQFGIDI
B4: OROV nucleoprotein (N) of strain BeAn19991, native, in virus stocks and infected cells (natural protein, Oropouche virus strain BeAn19991)
chain: B3 chain
notes: N protein of Oropouche virus strain BeAn19991, GenBank AJE24680.1, as made by the virus; also called OROV BeAn19991
B5: OROV nucleoprotein (N) in serum of patients with acute OROV infection (natural protein)
chain: B3 chain
notes: N protein of the Oropouche virus infecting the patients; also called OROV N protein
B6: OROV nucleoprotein (N) of the 2023-4 epidemic isolate AM0088, native (natural protein)
chain: B3 chain
notes: also called OROV AM0088 N
B7: OROV nucleoprotein (N) of strain TRVL, native, in virus stock (natural protein)
chain: B3 chain
notes: N protein of Oropouche virus strain TRVL (Anderson et al, 1961); also called OROV TRVL
B8: nanobody NpE2, His8-tagged (VHH)
VHH: QVQLVESGGGLVQAGDSLRLSCVASGFTPNPAVSWVRQAPGKDLEWVSSIYHGDITSYATSVKGRFTISRDNAKNTVYLQMNSLKPEDSAIYYCTKGDSRGQGTQVTVSS
notes: as the VHH of m12; also called OROV Np Nb E2 H8; not shown: His8, C-terminal, kept
B9: biotinylated nanobody NpE2 (AviTag-His9) (VHH)
VHH: B8 VHH
notes: VHH NpE2 from an immunised llama; also called bNpE2; OROV Np Nb E2 BAP H9; not shown: AviTag, C-terminal, kept
B10: nanobody SpB6, His8-tagged (VHH)
VHH: QVQLVESGGGLVQPGDSLRLSCAASGRTFSNYAMGWFRQAPGKEREKVAALSRSGTSTYYLDRVKGRFTISRDNTKNMVYLQMNSLEPEDTAVYYCAADPLFQNAAYHYSGQGTQVTVST
notes: as the VHH of m18; also called OROV Gc Spike Nb B6 H8; not shown: His8, C-terminal, kept
B11: biotinylated nanobody SpB6 (AviTag-His9) (VHH)
VHH: B10 VHH
notes: VHH SpB6 from an immunised llama; also called bSpB6; OROV Gc Spike Nb B6 BAP H9; not shown: AviTag, C-terminal, kept
B12: biotinylated nanobody SpE8 (AviTag-His9) (VHH)
VHH: QVQLVESGGGFVRAGDSLRLSCAASGRAFSTYAMGWFRQAPGKEREFVAGITLGSRITQYADSVKGRFTISRDNARQTMYLQMNNLQPEDTADYYCAARGQGSPPLRNRWSADDYNYWGQGLQVTVSS
notes: VHH SpE8 from an immunised llama; also called bSpE8; OROV Gc Spike Nb E8 BAP H9; not shown: AviTag, C-terminal, kept
B13: nanobody SpE8, His8-tagged (VHH)
VHH: B12 VHH
notes: as the VHH of m21; also called OROV Gc Spike Nb E8 H8; not shown: His8, C-terminal, kept
B14: biotinylated nanobody SpA7 (AviTag-His9) (VHH)
VHH: QVQLVESGGGSVQAGGSLRLSCAASGRTFSAYVMGWFRQAPGKEREFVAAIRRSYGSTYYADSVKGRFTISTDNAKNTVTLQMNSLKPEDTAIYYCAAIRQGGGWGSSAVDYWGQGTQVTVAS
notes: VHH A7 against Gc spike from an immunised llama; also called OROV Gc Spike Nb A7 BAP H9; not shown: AviTag, C-terminal, kept
B15: biotinylated nanobody NpA2 (AviTag-His9) (VHH)
VHH: QVQLVESGGGLVQPGGSVRLSCAASGGIFSFNAMAWYRQAPGKQRDIVALIANDGNTNYADSVKGRFTISRDNAKNTVYLQMNSLQPEDTAVYYCSALRRGAQDWGQGTQVTVSS
notes: VHH NpA2 from an immunised llama; also called bNpA2; OROV Np Nb A2 BAP H9; not shown: AviTag, C-terminal, kept
B16: nanobody NpA2, His8-tagged (VHH)
VHH: B15 VHH
notes: as the VHH of m10; also called OROV Np Nb A2 H8; not shown: His8, C-terminal, kept
B17: nanobody NpG1, His8-tagged (VHH)
VHH: QVQLVESGGGLVQPGDSLRLSCAASGRTFTDYPMAWFRQAPGKEREFVTAINWSGGATYYADSVKGRFTISRDNTRNTVFLQMNSLKPEDTAVYYCAGGSGRLSYNMDKEYIYWGQGIQVTVSS
notes: as the VHH of m15; also called OROV Np Nb G1 H8; not shown: His8, C-terminal, kept
B18: biotinylated nanobody NpG1 (AviTag-His9) (VHH)
VHH: B17 VHH
notes: VHH NpG1 from an immunised llama; also called bNpG1; OROV Np Nb G1 BAP H9; not shown: AviTag, C-terminal, kept
B19: biotinylated nanobody SpA9 (AviTag-His9) (VHH)
VHH: QVQLVESGGGLVQPGGSLTLSCAASGFTFSTLAMAWFRQAPGKERESVAVINRSGGIVNYADSVKGRFTITRDNAKNMVYLQMNSLKPEDTAVYYCAARTGYAYVRVSDYDSWGQGTQVTVSS
notes: VHH A9 against Gc spike from an immunised llama; also called OROV Gc Spike Nb A9 BAP H9; not shown: AviTag, C-terminal, kept
B20: nanobody NpF2, His8-tagged (VHH)
VHH: QVQLVESGGGAVQAGGSLRLSCAASGRTFSSFPMGWFRQAPGKEREFIAAINWSGASKYYADSVKGRFAISRDNAKNTVYLQMNSLTPEDTAVYSCAAGSGRYGYTFSKEYTYWGQGTQVIVAS
notes: as the VHH of m14; also called OROV Np Nb F2 H8; not shown: His8, C-terminal, kept
B21: biotinylated nanobody NpF2 (AviTag-His9) (VHH)
VHH: B20 VHH
notes: VHH NpF2 from an immunised llama; also called bNpF2; OROV Np Nb F2 BAP H9; not shown: AviTag, C-terminal, kept
B22: nanobody NpD2, His8-tagged (VHH)
VHH: QVQLVESGGGLAQPGGSLRLSCAASGFTLDYYSIGWFRQAPGKEREGVSCISSGGSTYYADSVKGRFAISSDNAKNTVYLQMNSLKPEDTAVYYCAADIMSCPGKYSAVADYWGQGTQVIVDS
notes: as the VHH of m11; also called OROV Np Nb D2 H8; not shown: His8, C-terminal, kept
B23: biotinylated nanobody NpD2 (AviTag-His9) (VHH)
VHH: B22 VHH
notes: VHH NpD2 from an immunised llama; also called bNpD2; OROV Np Nb D2 BAP H9; not shown: AviTag, C-terminal, kept
B24: nanobody NpE3, His8-tagged (VHH)
VHH: QVQLVESGGGLVRPGGSLRLSCAASGFTFSNAYMTWIRQAPGKDLEWVSSIYYGDMTSYATSVKGRFTISRDNAKNTLYLQMNNLKPEDSAIYYCTKGDERGQGTQVTVSS
notes: as the VHH of m13; also called OROV Np Nb E3 H8; not shown: His8, C-terminal, kept
B25: nanobody SpC7, His8-tagged (VHH)
VHH: QVQLVESGGGLVQAGGSLRLSCAASGRTFSPNAMGWFRQAPGKEREFVSAISWSGGSTTYADSVKGRFTISRDNAKNTVSLQMNSLKPEDTAVYYCAADLEGMVVADRIWGQGTQVTVSS
notes: as the VHH of m20; also called OROV Gc Spike Nb C7 H8; not shown: His8, C-terminal, kept

Assays:
[1] = biological target: T1, OROV Gc spike region (residues 482-894 of the M polyprotein), recombinant, strain BeAn19991 (Oropouche virus strain BeAn19991, UniProt A0A0B5CLT0); test: ELISA; […], biotinylated nanobody 2 µg/mL, […], room temperature; conditions: both partners purified
T1 construct: Gc spike region (head and stalk domains) of the M polyprotein of Oropouche virus strain BeAn19991, GenBank AJE24679.1, residues 482-894; also called Gc spike domain

[2] = biological target: T1, OROV Gc spike region (residues 482-894 …); test: ELISA; conditions: both partners purified
[3] = biological target: T2, biotinylated nanobody-Fc fusion bFcNpD2 (C-terminal AviTag) (llama); test: ELISA
T2 construct: as the VHH of m11; also called OROV FcNpD2 BAP; not shown: Fc (human IgG1 hinge and Fc domains 2 and 3), C-terminal, kept; AviTag, C-terminal, kept

[4] = biological target: T3, nanobody-Fc fusion FcNpD2, HRP-conjugated (llama); test: ELISA
T3 construct: as the VHH of m11; also called OROV FcNpD2; not shown: Fc (human IgG1 hinge and Fc domains 2 and 3), C-terminal, kept

[5] = biological target: B3; test: ELISA; conditions: both partners purified
[6] = biological target: B3; test: BLI; streptavidin biosensors loaded with biotinylated nanobodies, 1 µM OROV N with or without 25 µM competitor nanobody, 300 s association, 30 °C, PBS-T, Octet Red; conditions: both partners purified
[7] = biological target: T4, OROV glycoprotein Gc of strain TRVL, native, in virus stock (Oropouche virus strain TRVL (stand-in: …, UniProt A0A0B5CLT0, strain)); test: ELISA; conditions: one partner purified
T4 construct: also called Gc spike; OROV TRVL

[8] = biological target: T5, OROV glycoprotein Gc of strain BeAn19991, native, in virus stocks and infected cells (Oropouche virus strain BeAn19991, UniProt A0A0B5CLT0); test: ELISA; conditions: one partner purified
T5 construct: On virus particles Gc stands with Gn; also called Gc spike; OROV BeAn19991

[9] = biological target: B3; test: ELISA; […], biotinylated nanobody 2 µg/mL, […], room temperature; conditions: both partners purified
[10] = biological target: B4; test: ELISA; conditions: one partner purified
[11] = biological target: B7; test: ELISA; conditions: one partner purified

Q: Does B1 bind [1]?
A: binds

Q: Does B2 bind [2]?
A: binds

Q: Which results are given for B3?
A: binding result ([3]; both partners purified): binds; binding result ([4]; both partners purified): binds

Q: Does B4 bind ([3]; one partner purified)?
A: binds

Q: Does B4 bind ([4]; one partner purified)?
A: binds

Q: Does B5 bind ([3]; one partner purified)?
A: binds

Q: Does B5 bind ([4]; one partner purified)?
A: binds

Q: Does B6 bind ([3]; one partner purified)?
A: binds

Q: Does B6 bind ([4]; one partner purified)?
A: binds

Q: Does B7 bind ([3]; one partner purified)?
A: binds

Q: Does B7 bind ([4]; one partner purified)?
A: binds

Q: Does B8 bind [5]?
A: binds

Q: Does B9 bind [6]?
A: binds

Q: What does the source list for B10?
A: binding result [2]: binds; binding result [7]: binds; binding result [8]: binds

Q: Does B11 bind [1]?
A: binds

Q: Does B12 bind [1]?
A: binds

Q: Does B13 bind [2]?
A: binds

Q: Does B14 bind [1]?
A: binds

Q: Does B15 bind [9]?
A: binds

Q: Does B16 bind [5]?
A: binds

Q: Does B17 bind [5]?
A: binds

Q: Does B18 bind [6]?
A: binds

Q: Does B19 bind [1]?
A: binds

Q: Does B20 bind [10]?
A: binds

Q: Does B20 bind [11]?
A: binds

Q: Does B20 bind [5]?
A: binds

Q: Does B21 bind [6]?
A: binds

Q: Does B22 bind [5]?
A: binds

Q: Does B23 bind [9]?
A: binds

Q: Does B24 bind [5]?
A: binds

Q: Does B25 bind [2]?
A: binds
